How the values were obtained:
[1] = target: FcγRI on HEK293/FcγRI cells (human) (UniProt P12314)
[2] = target: BGB-A317/IgG4_(S228P) (human); assay: SPR; Biacore, human PD-1/His immobilised on a CM5 chip; the antibody captured on the PD-1/His surface; FcγRI injected over it
Chain of BGB-A317/IgG4_(S228P) (human) (heavy, as listed by the source, chain 1 of 2): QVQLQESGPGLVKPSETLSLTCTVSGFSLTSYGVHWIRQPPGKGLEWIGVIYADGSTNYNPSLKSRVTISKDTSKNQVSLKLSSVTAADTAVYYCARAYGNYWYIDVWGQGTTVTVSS
Chain of BGB-A317/IgG4_(S228P) (human) (light, as listed by the source, chain 2 of 2): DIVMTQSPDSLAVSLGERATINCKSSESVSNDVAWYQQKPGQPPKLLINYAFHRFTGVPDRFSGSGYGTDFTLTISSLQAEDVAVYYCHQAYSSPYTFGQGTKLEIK

Substance	IL-10 gene transcription (real-time PCR) in M2 macrophages seeded on PD-1-coated plates in the presence of the antibody, against huIgG baseline [1]	Ka [2]	Kd [2]	koff [2]	kon [2]
BGB-A317/IgG4_(S228P) (antibody)	< 5 fold				
human FcγRI (from UniProt P12314 16-292) (receptor)		3.57e+08 M⁻¹	2.8 nM	0.00199 s⁻¹	712000 M⁻¹ s⁻¹

From paper PMC6006217
